Assay results published in patent US20110300138A1 (published 2011).

Legend:
[1] = molecular target: full length wild type human TSHR (human) (UniProt P16473); assay: TSHR260-AP bridge ELISA, wild type TSHR on wells; IgG at 1 µg/mL in HBD
[2] = molecular target: full length human TSHR with mutation Arg255 Asp (human) (UniProt P16473); assay: TSHR260-AP bridge ELISA, Arg255 Asp TSHR on wells; IgG at 1 µg/mL in HBD
[3] = molecular target: full length wild type human TSHR (human) (UniProt P16473); assay: TSHR260-AP bridge ELISA, wild type TSHR on wells; IgG at 10 µg/mL in HBD
[4] = molecular target: full length wild type human TSHR (human) (UniProt P16473); assay: TSHR260-AP bridge ELISA, wild type TSHR on wells; IgG at 0.05 µg/mL in HBD
[5] = molecular target: full length human TSHR with mutation Arg255 Asp (human) (UniProt P16473); assay: TSHR260-AP bridge ELISA, Arg255 Asp TSHR on wells; IgG at 0.01 µg/mL in HBD
[6] = molecular target: full length human TSHR with mutation Arg255 Asp (human) (UniProt P16473); assay: TSHR260-AP bridge ELISA, Arg255 Asp TSHR on wells; IgG at 0.05 µg/mL in HBD
[7] = molecular target: full length wild type human TSHR (human) (UniProt P16473); assay: TSHR260-AP bridge ELISA, wild type TSHR on wells; IgG at 0.005 µg/mL in HBD
[8] = molecular target: thyroid stimulating hormone receptor (TSHR), full length, coated on tubes (human) (UniProt P16473); assay: inhibition of 125I-TSH binding, TSHR coated tubes; antibody 100 µg/mL in assay buffer
[9] = molecular target: TSH receptor (TSHR), full length human, coated on tubes (human) (UniProt P16473); assay: inhibition of 125I-TSH binding to TSHR coated tubes; 0.1 µg/mL, diluted in assay buffer
[10] = molecular target: human thyroid stimulating hormone receptor (TSHR), full length (human) (UniProt P16473); assay: 125I-K1-70 Fab (competitor) binding to TSHR coated tubes; test sample 1 µg/mL in HBD serum
[11] = molecular target: human thyroid stimulating hormone receptor (TSHR), full length (human) (UniProt P16473); assay: 125I-K1-70 Fab (competitor) binding to TSHR coated tubes; test sample 0.1 µg/mL in HBD serum
[12] = molecular target: human thyroid stimulating hormone receptor (TSHR), full length (human) (UniProt P16473); assay: 125I-K1-70 Fab (competitor) binding to TSHR coated tubes; test sample 0.01 µg/mL in HBD serum
[13] = molecular target: human thyroid stimulating hormone receptor (TSHR), full length (human) (UniProt P16473); assay: 125I-K1-70 Fab (competitor) binding to TSHR coated tubes; test sample 1 µg/mL in assay buffer
[14] = molecular target: human thyroid stimulating hormone receptor (TSHR), full length (human) (UniProt P16473); assay: 125I-K1-70 Fab (competitor) binding to TSHR coated tubes; test sample 10 µg/mL in assay buffer
[15] = molecular target: human thyroid stimulating hormone receptor (TSHR), full length (human) (UniProt P16473); assay: 125I-K1-70 Fab (competitor) binding to TSHR coated tubes; test sample 0.1 µg/mL in assay buffer
[16] = molecular target: human thyroid stimulating hormone receptor (TSHR), full length (human) (UniProt P16473); assay: 125I-K1-70 Fab (competitor) binding to TSHR coated tubes; test sample 100 µg/mL in assay buffer
[17] = molecular target: thyroid stimulating hormone receptor (full length human TSHR) (human) (UniProt P16473); assay: ELISA, inhibition of TSH-biotin binding to TSHR coated wells; 100 µg/mL, diluted in assay buffer
[18] = molecular target: human thyroid stimulating hormone receptor (TSHR), full length (human) (UniProt P16473); assay: 125I-K1-70 Fab (competitor) binding to TSHR coated tubes; test sample 0.01 µg/mL in assay buffer
[19] = molecular target: TSHR260-alkaline phosphatase (TSHR260-AP) (human) (UniProt P05187); assay: TSHR260-AP bridge ELISA, full length TSHR on wells; 0.005 µg/mL, diluted in HBD
[20] = molecular target: TSHR260-alkaline phosphatase (TSHR260-AP) (human) (UniProt P05187); assay: TSHR260-AP bridge ELISA, full length TSHR on wells; 0.005 µg/mL, diluted in assay buffer

Sequence of M22 IgG (antibody) (VH): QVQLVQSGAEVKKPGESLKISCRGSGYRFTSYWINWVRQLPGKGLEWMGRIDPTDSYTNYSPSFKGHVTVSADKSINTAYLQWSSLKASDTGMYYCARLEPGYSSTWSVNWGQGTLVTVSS
Sequence of M22 IgG (antibody) (V domain): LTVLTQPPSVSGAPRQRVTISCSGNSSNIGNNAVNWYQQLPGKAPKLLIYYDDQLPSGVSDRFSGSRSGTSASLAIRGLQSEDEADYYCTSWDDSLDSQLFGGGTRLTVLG

| Mean absorbance at 405 nm (absorbance at 405 nm) [1] | Mean absorbance at 405 nm (absorbance at 405 nm) [2] | Mean absorbance at 405 nm (absorbance at 405 nm) [3] | Mean absorbance at 405 nm (absorbance at 405 nm) [4] | Mean absorbance at 405 nm (absorbance at 405 nm) [5] | Mean absorbance at 405 nm (absorbance at 405 nm) [6] | Mean absorbance at 405 nm (absorbance at 405 nm) [7] | Inhibition of binding (%) [8] | Inhibition of binding (%) [9] | Inhibition of binding (%) [10] | Inhibition of binding (%) [11] | Inhibition of binding (%) [12] | Inhibition of binding (%) [13] | Inhibition of binding (%) [14] | Inhibition of binding (%) [15] | Inhibition of binding (%) [16] | Inhibition of binding (%) [17] | Inhibition of binding (%) [18] | Mean absorbance at 405 nm (absorbance at 405 nm) [19] | Mean absorbance at 405 nm (absorbance at 405 nm) [20] | Substance |
| --- | --- | --- | --- | --- | --- | --- | --- | --- | --- | --- | --- | --- | --- | --- | --- | --- | --- | --- | --- | --- |
| 0.329 | 0.322 | 0.481 | 0.056 | -0.004 | 0.02 | 0.006 | 75.6% | 48.3% | 38.8% | 12.7% | -1.2% | 43.8% | 48% | 29.7% | 62.7% | 86.8% | 5% | – | – | 9D33 IgG (antibody) |
| 1.17 | 0.34 | 1.36 | 0.332 | -0.002 | 0.017 | 0.032 | – | – | – | – | – | – | – | – | – | – | – | 0.045 | 0.075 | M22 IgG (antibody) |
